The values below come from FireProtDB (doi:10.1016/0022-2836(91)90566-o).

The conditions of this series: Enterobacteria phage fd; pH 7; 25 °C; GdnHCl; CD; MOPS 50 mM; NaCl 100 mM; reversible: yes; whole UniProt chain shown.

B1: DNA-Binding protein G5P wild type, P69542 (protein)
chain: MIKVEIKPSQAQFTTRSGVSRQGKPYSLNEQLCYVDLGNEYPVLVKITLDEGQPAYAPGLYTVHLSSFKVGQFGSLMIDRLRLVPAK
For the protein B1, the denaturant m value is 3.6 kcal/mol/M, the “denaturant midpoint (higher = more stable)” value turned out to be 2.61 M and the unfolding free energy worked out at 9 kcal/mol.
